{
  "source": "patent US20240376185A1",
  "about": "(SMIVET B V, published 2024)",
  "binders": {"B1": {"name": "SVA06L (VHH)", "VHH": "QVQLQESGGRLVQAEDSLRLSCAASGRTFVSYDMGWFRQAPGKEREFVAAINWRGYTTDYVDSVKGRFFISRDIAKSTVYLQMNNLKPEDTAVYYCAARQMSGSSRYSPPGRVGYDFWGQGTQVTVSS", "notes": "yeast-produced"}, "B2": {"name": "SVT15-3FW4M-GS3-SVT06-GS2-SVG13M5-H6 (bispecific antibody)", "chain": "QVQLQESGGGLVQTGGSLRLSCRASGRAFANYHFGWFRQAPGKDREFVASISWKGGSTYYANFALGRFTSSVDRAESSVYLQMSGLTPEDTATYYCAAHDGGDWNYHTGMDYWGQGTQVTVSSGGGGSGGGGSGGGGSQVQLQESGGGSVQAGGSLRLSCTASELSYDDYTIAWFRRAAGEGRVEDGEGVASITKSYDRAYDNKINYGHSVKGRFTISRDNAKNTVYLQMTDLLPSDTAVYYCALDITPPGGVGASLTEGFLFDYWGQGTQVTVSSGGGGSGGGSEVQLVESGGGLVQPGGSLRLSCEASGFTFDDYGMSWVRQAPGKGLEWVSSLTPNGGSTYYADSVKGRFTISRDNAKNTLYLQMNSLKPEDTALYYCAKNSYYGAMDYRGQGTQVTVSSHHHHHH"}, "B3": {"name": "SVA07 (VHH, not shown: large carriers)", "VHH": "QVQLQQSGGGLVQAGDSLRLSCAASGRAFNYYTMGWFRQAPGKEREFVAKIYWDGGSTIYADSVKGRFTISIDNAKNTVYLQMNSLKPEDTAVYYCAADPSFYPFRPKYWGQGTQVTVSS"}},
  "key": {"human serum albumin [1]": {"biological_target": "T1, human serum albumin (human, UniProt P02768 25-609)", "T1 construct": "mature; also called human Alb", "assay": "ELISA, coated albumin"}, "sheep serum albumin": {"biological_target": "T2, sheep serum albumin (sheep, UniProt P14639 25-607)", "T2 construct": "mature; also called sheep Alb", "T2 sequence (P14639 25-607)": "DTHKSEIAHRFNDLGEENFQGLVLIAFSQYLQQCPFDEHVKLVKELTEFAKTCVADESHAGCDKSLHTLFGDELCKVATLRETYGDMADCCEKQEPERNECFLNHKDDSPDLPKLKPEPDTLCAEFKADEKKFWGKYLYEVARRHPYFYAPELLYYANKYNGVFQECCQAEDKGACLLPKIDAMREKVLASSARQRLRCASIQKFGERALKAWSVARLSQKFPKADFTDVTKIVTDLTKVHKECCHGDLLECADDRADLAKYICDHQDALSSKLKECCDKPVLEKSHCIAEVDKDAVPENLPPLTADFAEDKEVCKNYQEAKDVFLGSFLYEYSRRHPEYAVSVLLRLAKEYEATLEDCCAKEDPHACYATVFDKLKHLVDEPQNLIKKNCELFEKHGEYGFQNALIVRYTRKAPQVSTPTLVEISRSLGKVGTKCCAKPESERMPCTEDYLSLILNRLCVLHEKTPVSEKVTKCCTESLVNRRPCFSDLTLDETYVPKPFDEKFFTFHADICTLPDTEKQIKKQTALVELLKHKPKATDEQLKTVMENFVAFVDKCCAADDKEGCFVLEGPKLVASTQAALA", "assay": "ELISA, coated albumin"}, "bovine serum albumin": {"biological_target": "T3, bovine serum albumin (bovine, UniProt P02769 25-607)", "T3 construct": "mature; also called bovine Alb", "T3 sequence (P02769 25-607)": "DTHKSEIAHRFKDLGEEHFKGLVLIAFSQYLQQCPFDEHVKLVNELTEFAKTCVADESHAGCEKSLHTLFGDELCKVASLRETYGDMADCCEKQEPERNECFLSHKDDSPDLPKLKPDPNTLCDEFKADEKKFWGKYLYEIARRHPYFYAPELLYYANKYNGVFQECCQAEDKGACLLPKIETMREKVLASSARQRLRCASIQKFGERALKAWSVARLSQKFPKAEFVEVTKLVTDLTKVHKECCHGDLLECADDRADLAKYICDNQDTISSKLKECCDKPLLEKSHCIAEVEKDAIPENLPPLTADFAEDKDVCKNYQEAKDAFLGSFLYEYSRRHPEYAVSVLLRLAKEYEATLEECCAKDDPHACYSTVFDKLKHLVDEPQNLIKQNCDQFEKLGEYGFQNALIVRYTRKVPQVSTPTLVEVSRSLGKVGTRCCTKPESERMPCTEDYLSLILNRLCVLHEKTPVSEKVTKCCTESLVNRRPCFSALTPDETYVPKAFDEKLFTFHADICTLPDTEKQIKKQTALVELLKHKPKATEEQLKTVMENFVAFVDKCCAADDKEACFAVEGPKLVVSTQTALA", "assay": "ELISA, coated albumin"}, "chicken ovalbumin": {"biological_target": "T4, chicken ovalbumin (chicken, UniProt P01012 2-386)", "T4 construct": "mature; also called chicken Alb", "T4 sequence (looked up)": "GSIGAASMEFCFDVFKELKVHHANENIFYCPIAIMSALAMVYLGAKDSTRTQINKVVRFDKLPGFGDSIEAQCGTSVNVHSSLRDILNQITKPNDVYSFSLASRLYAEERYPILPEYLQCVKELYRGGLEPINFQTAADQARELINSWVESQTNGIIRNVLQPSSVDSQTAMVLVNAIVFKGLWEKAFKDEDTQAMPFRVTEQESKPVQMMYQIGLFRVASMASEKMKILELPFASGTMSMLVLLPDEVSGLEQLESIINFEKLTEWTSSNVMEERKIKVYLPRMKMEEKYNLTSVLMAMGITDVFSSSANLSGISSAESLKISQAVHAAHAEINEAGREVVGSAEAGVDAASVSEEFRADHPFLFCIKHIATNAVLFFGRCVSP", "assay": "ELISA, coated albumin"}, "[2]": {"biological_target": "T5, Tetanus neurotoxin (TeNT), authentic tetanus holotoxin (Clostridium tetani, UniProt P04958 2-1315)", "T5 sequence (P04958 2-457 limits assumed, chain 1 of 2)": "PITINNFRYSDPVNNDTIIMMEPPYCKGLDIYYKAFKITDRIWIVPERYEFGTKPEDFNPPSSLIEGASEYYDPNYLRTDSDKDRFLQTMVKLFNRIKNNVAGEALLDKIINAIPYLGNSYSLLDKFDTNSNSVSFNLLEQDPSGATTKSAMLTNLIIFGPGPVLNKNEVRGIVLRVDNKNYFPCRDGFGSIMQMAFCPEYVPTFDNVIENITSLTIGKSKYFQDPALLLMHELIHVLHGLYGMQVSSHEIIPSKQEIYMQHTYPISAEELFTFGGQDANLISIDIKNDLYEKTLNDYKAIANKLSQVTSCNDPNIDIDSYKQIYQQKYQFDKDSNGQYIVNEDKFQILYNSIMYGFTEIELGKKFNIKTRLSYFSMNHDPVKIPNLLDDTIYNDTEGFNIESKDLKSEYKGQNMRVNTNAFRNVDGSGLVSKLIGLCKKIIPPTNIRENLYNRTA", "T5 sequence (P04958 458-1315 limits assumed, chain 2 of 2)": "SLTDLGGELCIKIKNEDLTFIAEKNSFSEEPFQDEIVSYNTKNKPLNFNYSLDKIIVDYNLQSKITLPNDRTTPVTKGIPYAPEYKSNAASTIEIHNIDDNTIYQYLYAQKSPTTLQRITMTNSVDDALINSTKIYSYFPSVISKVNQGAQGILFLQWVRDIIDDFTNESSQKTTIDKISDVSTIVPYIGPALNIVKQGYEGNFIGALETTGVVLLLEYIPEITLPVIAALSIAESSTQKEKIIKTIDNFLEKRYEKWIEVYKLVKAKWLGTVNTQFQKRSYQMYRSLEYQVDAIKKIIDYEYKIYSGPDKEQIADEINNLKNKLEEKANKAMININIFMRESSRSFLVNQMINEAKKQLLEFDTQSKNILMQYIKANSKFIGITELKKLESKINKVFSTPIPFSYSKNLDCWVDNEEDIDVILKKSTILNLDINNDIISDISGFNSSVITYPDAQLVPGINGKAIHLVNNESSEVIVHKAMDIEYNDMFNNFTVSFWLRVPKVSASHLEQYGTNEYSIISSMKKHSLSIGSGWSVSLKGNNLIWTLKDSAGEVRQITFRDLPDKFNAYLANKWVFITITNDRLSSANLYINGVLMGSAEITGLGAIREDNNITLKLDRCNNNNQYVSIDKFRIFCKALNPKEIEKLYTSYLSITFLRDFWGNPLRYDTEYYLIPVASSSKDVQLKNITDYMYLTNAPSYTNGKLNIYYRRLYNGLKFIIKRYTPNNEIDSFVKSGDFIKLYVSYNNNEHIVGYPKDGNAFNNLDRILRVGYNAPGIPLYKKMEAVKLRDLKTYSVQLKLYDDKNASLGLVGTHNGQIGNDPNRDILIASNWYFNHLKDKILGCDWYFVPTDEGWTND"}, "[3]": {"biological_target": "T5, Tetanus neurotoxin (TeNT), authentic …", "remark": "listed apart in the source"}, "Horse albumin": {"biological_target": "T6, Horse albumin (horse, UniProt P35747 25-607)", "T6 construct": "also called Equine albumin; Equine Alb", "T6 sequence (P35747 25-607 limits assumed)": "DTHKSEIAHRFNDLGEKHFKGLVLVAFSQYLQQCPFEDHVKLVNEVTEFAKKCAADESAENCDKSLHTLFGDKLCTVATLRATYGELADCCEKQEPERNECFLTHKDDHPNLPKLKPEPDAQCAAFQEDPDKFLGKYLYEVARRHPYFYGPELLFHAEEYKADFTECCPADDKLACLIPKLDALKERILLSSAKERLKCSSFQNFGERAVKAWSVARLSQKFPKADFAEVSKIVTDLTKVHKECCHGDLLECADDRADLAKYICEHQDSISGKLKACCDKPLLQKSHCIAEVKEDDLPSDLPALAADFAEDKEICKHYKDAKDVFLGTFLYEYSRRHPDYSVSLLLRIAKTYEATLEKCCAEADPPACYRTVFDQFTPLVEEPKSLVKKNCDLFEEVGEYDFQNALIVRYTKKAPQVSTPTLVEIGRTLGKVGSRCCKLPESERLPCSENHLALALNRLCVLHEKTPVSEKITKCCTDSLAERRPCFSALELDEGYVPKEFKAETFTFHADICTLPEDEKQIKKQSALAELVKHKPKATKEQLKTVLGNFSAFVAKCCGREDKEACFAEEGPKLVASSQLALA", "assay": "BLI (Octet Red96), biotinylated albumin on SA sensor, SDA as analyte"}, "Human albumin": {"biological_target": "Human albumin (human, UniProt P02768 25-609)", "assay": "BLI (Octet Red96), biotinylated albumin on SA sensor, SDA as analyte"}, "Dog albumin": {"biological_target": "T7, Dog albumin (dog, UniProt P49822 25-608)", "T7 construct": "also called Canine albumin; Canine Alb", "T7 sequence (P49822 25-608 limits assumed)": "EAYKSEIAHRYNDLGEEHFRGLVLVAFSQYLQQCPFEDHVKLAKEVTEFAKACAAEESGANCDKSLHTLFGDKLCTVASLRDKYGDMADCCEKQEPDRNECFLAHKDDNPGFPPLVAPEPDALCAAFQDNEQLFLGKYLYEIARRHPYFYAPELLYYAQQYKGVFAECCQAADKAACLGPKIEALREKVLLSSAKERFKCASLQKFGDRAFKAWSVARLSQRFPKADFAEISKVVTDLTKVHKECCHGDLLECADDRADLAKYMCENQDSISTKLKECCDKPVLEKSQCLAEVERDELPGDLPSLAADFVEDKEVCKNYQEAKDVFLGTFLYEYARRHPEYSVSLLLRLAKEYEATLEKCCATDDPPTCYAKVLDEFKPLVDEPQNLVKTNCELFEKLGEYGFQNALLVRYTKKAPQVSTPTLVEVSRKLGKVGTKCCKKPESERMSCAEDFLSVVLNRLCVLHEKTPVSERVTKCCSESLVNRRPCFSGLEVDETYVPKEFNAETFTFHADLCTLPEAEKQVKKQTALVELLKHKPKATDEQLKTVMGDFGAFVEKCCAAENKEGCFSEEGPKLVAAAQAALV", "assay": "BLI (Octet Red96), biotinylated SDA on SA sensor, albumin as analyte"}, "dog serum albumin [4]": {"biological_target": "T8, dog serum albumin (dog, UniProt P49822 25-608)", "T8 construct": "mature; also called dog Alb; Canine albumin", "T8 sequence (P49822 25-608)": "as the sequence (P49822 25-608 limits assumed) above", "assay": "ELISA, E. coli supernatant"}, "human serum albumin [5]": {"biological_target": "T1, human serum albumin", "assay": "ELISA, E. coli supernatant"}, "horse serum albumin": {"biological_target": "T9, horse serum albumin (horse, UniProt P35747 25-607)", "T9 construct": "mature; also called horse Alb; Equine albumin", "T9 sequence (P35747 25-607)": "as the sequence (P35747 25-607 limits assumed) above", "assay": "ELISA, coated albumin, E. coli supernatant; also: test concentration or dose not given here"}, "dog serum albumin [6]": {"biological_target": "T8, dog serum albumin", "assay": "ELISA, coated albumin, E. coli supernatant"}, "human serum albumin [7]": {"biological_target": "T1, human serum albumin", "assay": "ELISA, coated albumin, E. coli supernatant"}},
  "note": "Read-outs that look alike come from different tables or passages of the source.",
  "data": [
    {"binder": "B1", "values": [
      {"measurement": "binding result", "setting": "human serum albumin [1]", "value": "no binding (tested: 1 µg/ml)"},
      {"measurement": "binding result", "setting": "sheep serum albumin", "value": "no binding (tested: 1 µg/ml)"},
      {"measurement": "binding result", "setting": "bovine serum albumin", "value": "no binding (tested: 1 µg/ml)"},
      {"measurement": "binding result", "setting": "chicken ovalbumin", "value": "no binding (tested: 1 µg/ml)"}
    ]},
    {"binder": "B2", "values": [
      {"measurement": "Kd", "setting": "[2]", "value": "< 0.00041", "unit": "nM"},
      {"measurement": "koff", "setting": "[2]", "value": "< 1.99e-07", "unit": "s⁻¹"},
      {"measurement": "kon", "setting": "[2]", "value": 484000, "unit": "M⁻¹ s⁻¹"},
      {"measurement": "Kd", "setting": "[3]", "value": 0.0229, "unit": "nM"},
      {"measurement": "koff", "setting": "[3]", "value": "2.73e-05", "unit": "s⁻¹"},
      {"measurement": "kon", "setting": "[3]", "value": "1.19e+06", "unit": "M⁻¹ s⁻¹"},
      {"measurement": "binding result", "setting": "Horse albumin", "value": "no binding (tested: 100 nM)"},
      {"measurement": "binding result", "setting": "Human albumin", "value": "no binding (tested: 100 nM)"},
      {"measurement": "binding result", "setting": "Dog albumin", "value": "no binding (tested: 16-500 nM)"}
    ]},
    {"binder": "B3", "values": [
      {"measurement": "binding result", "setting": "dog serum albumin [4]", "value": "no binding"},
      {"measurement": "binding result", "setting": "human serum albumin [5]", "value": "no binding"},
      {"measurement": "absorbance at 450 nm", "setting": "horse serum albumin", "value": 1.46, "unit": "A450"},
      {"measurement": "absorbance at 450 nm", "setting": "dog serum albumin [6]", "value": 0.059, "unit": "A450"},
      {"measurement": "absorbance at 450 nm", "setting": "human serum albumin [7]", "value": 0.062, "unit": "A450"}
    ]}
  ]
}
